# Laboratory results: patent publication US20050282743A1, “Molecular interactions in cells” (Arbor Vita Corporation, priority 2001, published 2005)
# T1: GST-APXL-1 PDZ domain 1 (Homo sapiens (Human)), Q13796
# T1 chain: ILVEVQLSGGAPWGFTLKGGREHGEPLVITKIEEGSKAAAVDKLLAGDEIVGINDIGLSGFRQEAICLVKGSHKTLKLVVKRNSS
# T2: GST-LIM Mystique PDZ domain 1 (Homo sapiens (Human)), Q96JY6
# T2 chain: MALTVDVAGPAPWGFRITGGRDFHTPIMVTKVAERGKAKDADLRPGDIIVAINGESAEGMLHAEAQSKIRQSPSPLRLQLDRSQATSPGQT
# T3: GST-FLJ 10324 PDZ domain 1 [GST: P08515]
# T3 chain: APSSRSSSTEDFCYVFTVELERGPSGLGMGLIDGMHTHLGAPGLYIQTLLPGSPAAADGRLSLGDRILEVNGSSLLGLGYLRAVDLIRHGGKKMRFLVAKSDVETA
# T4: GST-KIAA0382 PDZ domain 1 (Canis lupus familiaris (Dog) (Canis familiaris)), A0A8I3
# T4 chain: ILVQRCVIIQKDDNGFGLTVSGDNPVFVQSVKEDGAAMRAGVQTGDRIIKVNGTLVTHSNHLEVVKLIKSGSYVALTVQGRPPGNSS
# T5: GST-EZRIN Binding Protein 50 PDZ domain 1 (Homo sapiens (Human)), O14745
# T5 chain: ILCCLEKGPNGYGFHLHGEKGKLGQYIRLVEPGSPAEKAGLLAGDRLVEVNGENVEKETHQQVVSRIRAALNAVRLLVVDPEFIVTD
# T6: GST-HEMBA 1003117 PDZ domain 1 (Homo sapiens (Human)), Q96JH8
# T6 chain: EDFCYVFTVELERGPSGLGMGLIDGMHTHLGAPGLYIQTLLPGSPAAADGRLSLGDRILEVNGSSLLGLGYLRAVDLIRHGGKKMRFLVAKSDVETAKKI
# T7: GST-INADL PDZ domain 3 (Homo sapiens (Human)), Q8NI35
# T7 chain: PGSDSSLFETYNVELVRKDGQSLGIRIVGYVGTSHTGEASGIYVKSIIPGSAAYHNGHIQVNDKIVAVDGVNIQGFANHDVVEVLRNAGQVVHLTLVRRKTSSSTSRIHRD
# T8: GST-KIAA0807(S) PDZ domain 1 (Homo sapiens (Human)), Q6P0Q8
# T8 chain: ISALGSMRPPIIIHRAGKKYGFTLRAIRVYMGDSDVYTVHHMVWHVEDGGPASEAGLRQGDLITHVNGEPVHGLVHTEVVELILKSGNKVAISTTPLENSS
# T9: GST-LIM-RIL PDZ domain 1 (Homo sapiens (Human)), P50479
# T9 chain: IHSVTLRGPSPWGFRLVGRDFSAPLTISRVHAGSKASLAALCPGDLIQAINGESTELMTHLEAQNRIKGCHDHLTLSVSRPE
# T10: GST-EZRIN Binding Protein 50 PDZ domain 2 (Homo sapiens (Human)), O14745
# T10 chain: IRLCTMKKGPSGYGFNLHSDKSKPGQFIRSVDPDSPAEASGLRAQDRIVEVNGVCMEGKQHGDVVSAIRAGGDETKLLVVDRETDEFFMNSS
# T11: GST-Shank 3 PDZ domain 1 (human (hypothetical, computer cloned)), Q9BYB0
# T11 chain: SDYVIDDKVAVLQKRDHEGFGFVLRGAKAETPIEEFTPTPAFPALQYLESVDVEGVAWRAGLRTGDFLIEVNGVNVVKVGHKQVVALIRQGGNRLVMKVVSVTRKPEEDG
# T12: GST-Shank 1 PDZ domain 1 (Homo sapiens (Human)), Q9UPX8
# T12 chain: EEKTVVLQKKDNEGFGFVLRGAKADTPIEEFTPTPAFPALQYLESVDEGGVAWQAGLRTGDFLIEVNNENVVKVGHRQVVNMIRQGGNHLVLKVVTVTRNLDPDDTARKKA
# T13: GST-Syntrophin 1 alpha PDZ domain 1 (Homo sapiens (Human)), Q13424
# T13 chain: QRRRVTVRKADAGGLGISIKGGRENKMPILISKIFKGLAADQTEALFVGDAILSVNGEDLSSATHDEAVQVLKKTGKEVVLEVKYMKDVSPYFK
# T14: GST-PDZK1 PDZ domains 2, 3, 4, Q5T2W1
# T14 chain: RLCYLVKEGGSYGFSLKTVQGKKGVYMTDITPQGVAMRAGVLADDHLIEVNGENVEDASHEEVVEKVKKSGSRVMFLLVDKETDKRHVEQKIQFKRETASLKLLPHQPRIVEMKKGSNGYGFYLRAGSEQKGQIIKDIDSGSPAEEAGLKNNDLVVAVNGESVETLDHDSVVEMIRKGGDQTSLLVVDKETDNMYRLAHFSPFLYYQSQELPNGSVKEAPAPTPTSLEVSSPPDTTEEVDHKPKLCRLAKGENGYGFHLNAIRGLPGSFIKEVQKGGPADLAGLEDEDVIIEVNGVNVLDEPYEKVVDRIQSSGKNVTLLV
# T15: GST-KIAA1719 PDZ domain 6 (Homo sapiens (Human)), Q9C0E4
# T15 chain: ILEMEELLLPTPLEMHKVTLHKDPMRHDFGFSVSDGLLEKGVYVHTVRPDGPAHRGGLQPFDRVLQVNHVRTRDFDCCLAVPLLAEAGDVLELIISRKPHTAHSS
# T16: GST-MINT1 PDZ domains 1, 2, Q02410
# T16 chain: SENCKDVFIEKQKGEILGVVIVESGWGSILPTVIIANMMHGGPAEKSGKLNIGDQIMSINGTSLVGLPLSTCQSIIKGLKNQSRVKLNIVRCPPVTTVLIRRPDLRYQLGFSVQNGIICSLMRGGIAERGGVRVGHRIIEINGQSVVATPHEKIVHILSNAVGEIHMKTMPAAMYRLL
# T17: GST-AF6 PDZ domain 1 (Homo sapiens (Human)), P55196
# T17 chain: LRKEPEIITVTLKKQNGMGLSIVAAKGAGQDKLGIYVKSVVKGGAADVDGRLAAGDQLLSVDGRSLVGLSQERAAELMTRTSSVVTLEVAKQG
# T18: GST-PTPL1 PDZ domain 4 (Homo sapiens (Human)), Q12923
# T18 chain: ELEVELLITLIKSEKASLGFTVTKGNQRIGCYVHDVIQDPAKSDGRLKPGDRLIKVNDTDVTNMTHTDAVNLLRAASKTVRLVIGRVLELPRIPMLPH
# T19: GST-MINT1 PDZ domain 2 (Mus musculus (Mouse)), B2RUJ5
# T19 chain: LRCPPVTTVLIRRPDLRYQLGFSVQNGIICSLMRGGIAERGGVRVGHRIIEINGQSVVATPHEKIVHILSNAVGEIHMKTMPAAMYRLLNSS
# T20: GST-MUPP1 PDZ domain 11 (Homo sapiens (Human)), O75970
# T20 chain: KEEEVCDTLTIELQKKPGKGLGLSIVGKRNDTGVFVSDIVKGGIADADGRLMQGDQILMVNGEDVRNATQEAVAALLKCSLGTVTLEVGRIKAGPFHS
# Key:
# Assay in all cases: G' assay
# [1] = molecular target: GST-KIAA807 [GST: P08515]
# GST-KIAA807 [GST: P08515], sequence (P08515 whole entry, the tested form may be a part): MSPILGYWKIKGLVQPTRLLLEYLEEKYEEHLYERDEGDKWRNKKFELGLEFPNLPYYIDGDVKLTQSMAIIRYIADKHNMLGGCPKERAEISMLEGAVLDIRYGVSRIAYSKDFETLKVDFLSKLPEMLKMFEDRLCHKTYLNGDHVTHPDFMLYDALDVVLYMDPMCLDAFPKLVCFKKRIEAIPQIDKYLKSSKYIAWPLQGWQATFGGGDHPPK
# [2] = molecular target: T1, GST-APXL-1 PDZ domain 1 (Homo sapiens …)
# [3] = molecular target: T2, GST-LIM Mystique PDZ domain 1 (Homo …)
# [4] = molecular target: GST-KIAA1634 PDZ domain 5 (Homo sapiens (Human)), Q5TCQ9
# GST-KIAA1634 PDZ domain 5 (Homo sapiens (Human)), Q5TCQ9, sequence (Q5TCQ9 other isoform, or with tags, fused parts or gaps): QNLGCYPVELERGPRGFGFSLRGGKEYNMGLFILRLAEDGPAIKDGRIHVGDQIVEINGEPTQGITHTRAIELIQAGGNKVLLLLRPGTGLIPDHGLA
# [5] = molecular target: GST-Atrophin-1 Interacting Protein PDZ domain 5 (Rattus norvegicus (Rat)), O88382
# GST-Atrophin-1 Interacting Protein PDZ domain 5 (Rattus norvegicus (Rat)), O88382, sequence (O88382 1128-1225): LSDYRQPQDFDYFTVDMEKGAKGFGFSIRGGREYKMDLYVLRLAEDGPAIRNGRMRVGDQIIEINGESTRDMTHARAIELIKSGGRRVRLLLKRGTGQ
# [6] = molecular target: T3, GST-FLJ 10324 PDZ domain 1 [GST: P08515]
# [7] = molecular target: T4, GST-KIAA0382 PDZ domain 1 (Canis lupus …)
# [8] = molecular target: T5, GST-EZRIN Binding Protein 50 PDZ domain …
# [9] = molecular target: T6, GST-HEMBA 1003117 PDZ domain 1 (Homo …)
# [10] = molecular target: T7, GST-INADL PDZ domain 3 (Homo sapiens …)
# [11] = molecular target: T8, GST-KIAA0807(S) PDZ domain 1 (Homo …)
# [12] = molecular target: T9, GST-LIM-RIL PDZ domain 1 (Homo sapiens …)
# [13] = molecular target: T10, GST-EZRIN Binding Protein 50 PDZ domain …
# [14] = molecular target: GST-KIAA0147 PDZ domain 1 (Homo sapiens (Human)), Q14160
# GST-KIAA0147 PDZ domain 1 (Homo sapiens (Human)), Q14160, sequence (Q14160 other isoform, or with tags, fused parts or gaps): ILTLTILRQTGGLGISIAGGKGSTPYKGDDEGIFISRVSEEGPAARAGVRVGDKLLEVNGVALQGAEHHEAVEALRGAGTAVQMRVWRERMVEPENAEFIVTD
# [15] = molecular target: T11, GST-Shank 3 PDZ domain 1 (human …)
# [16] = molecular target: T12, GST-Shank 1 PDZ domain 1 (Homo sapiens …)
# [17] = molecular target: GST-BAI-1 Associated Protein PDZ domain 6 (Homo sapiens (Human)), Q96QZ7
# GST-BAI-1 Associated Protein PDZ domain 6 (Homo sapiens (Human)), Q96QZ7, sequence (Q96QZ7 1143-1233): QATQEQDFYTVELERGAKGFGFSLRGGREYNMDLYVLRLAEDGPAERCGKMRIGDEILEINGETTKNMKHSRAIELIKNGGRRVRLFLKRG
# [18] = molecular target: T13, GST-Syntrophin 1 alpha PDZ domain 1 …
# [19] = molecular target: T14, GST-PDZK1 PDZ domains 2, 3, 4, Q5T2W1
# [20] = molecular target: T15, GST-KIAA1719 PDZ domain 6 (Homo sapiens …)
# [21] = molecular target: GST-PAR3 PDZ domain 3 (Homo sapiens (Human)), Q8TEW0
# GST-PAR3 PDZ domain 3 (Homo sapiens (Human)), Q8TEW0, sequence (Q8TEW0 579-681): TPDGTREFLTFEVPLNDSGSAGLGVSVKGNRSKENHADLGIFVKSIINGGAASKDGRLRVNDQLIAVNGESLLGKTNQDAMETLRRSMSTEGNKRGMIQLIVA
# [22] = molecular target: T16, GST-MINT1 PDZ domains 1, 2, Q02410
# [23] = molecular target: GST-KIAA1634 PDZ domain 1 (Homo sapiens (Human)), Q5TCQ9
# GST-KIAA1634 PDZ domain 1 (Homo sapiens (Human)), Q5TCQ9, sequence (Q5TCQ9 401-502): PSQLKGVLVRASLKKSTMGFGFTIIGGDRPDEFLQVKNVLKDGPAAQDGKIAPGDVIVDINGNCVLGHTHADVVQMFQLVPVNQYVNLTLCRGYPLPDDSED
# [24] = molecular target: T17, GST-AF6 PDZ domain 1 (Homo sapiens …)
# [25] = molecular target: T18, GST-PTPL1 PDZ domain 4 (Homo sapiens …)
# [26] = molecular target: T19, GST-MINT1 PDZ domain 2 (Mus musculus …)
# [27] = molecular target: T20, GST-MUPP1 PDZ domain 11 (Homo sapiens …)
# Further: key of the grades not given here.
binder,measurement,setting,value
LASKSAEEGKQIPDSLSTDL (modifications not checked) [DOCK2],Classification,[1],5 A450 class
same,Classification,[2],2 A450 class
same,Classification,[3],1 A450 class
same,Classification,[4],1 A450 class
same,Classification,[5],1 A450 class
same,Classification,[6],1 A450 class
same,Classification,[7],1 A450 class
same,Classification,[8],1 A450 class
same,Classification,[9],1 A450 class
same,Classification,[10],1 A450 class
same,Classification,[11],4 A450 class
same,Classification,[12],1 A450 class
same,Classification,[13],2 A450 class
same,Classification,[14],1 A450 class
same,Classification,[15],1 A450 class
same,Classification,[16],1 A450 class
same,Classification,[17],1 A450 class
DAKLKSDGTIAAITEKETHF (modifications not checked) [GABA transporter 3],Classification,[1],1 A450 class
same,Classification,[2],1 A450 class
same,Classification,[18],1 A450 class
same,Classification,[11],1 A450 class
same,Classification,[19],1 A450 class
same,Classification,[16],1 A450 class
QGDPALQDAGDSSRKEYFI (modifications not checked) [Glycophorin C],Classification,[20],1 A450 class
same,Classification,[21],2 A450 class
SSPDSSYQGKGFVMSRAMYV (modifications not checked) [Nectin 2],Classification,[22],2 A450 class
same,Classification,[23],1 A450 class
same,Classification,[24],2 A450 class
YSQPSARSEGEFKQTSSFLV (modifications not checked) [JAM (junctional adhesion molecule)],Classification,[24],1 A450 class
same,Classification,[10],1 A450 class
same,Classification,[25],1 A450 class
RIAYSLLGLKDQVNTVGIPI (modifications not checked) [ephrin A2],Classification,[26],1 A450 class
same,Classification,[7],1 A450 class
same,Classification,[27],1 A450 class
same,Classification,[20],1 A450 class
